Data: patent publication US20120172295A1 (INDIANA UNIVERSITY RESEARCH AND TECHNOLOGY, published 2012)
Where two headings read alike, the source gives them in different places. Starred links: 1 amine or outer side, 2 acyl side, 3 side chain; linkers in the order of their positions; H or OH if unused. Positions of bridges follow the written chain, without caps; N, C: chain ends. Non-standard residues stand in square brackets, D forms with d. No end group written: not given here. *: point of attachment. Dab(Ac) = acetyldiaminobutanoic acid, CC(=O)NCC[C@H](N[*:1])C(=O)[*:2]; C(Acm) = acetamidomethyl-cysteine, CC(=O)NCSC[C@H](N[*:1])C(=O)[*:2]; Isobutyryl(2-imidazol-4-yl) = CC(C)(C(=O)*)c1c[nH]cn1; Dap(CONH2) = NC(=O)NC[C@H](N)C(=O)O; Stearoyl = CCCCCCCCCCCCCCCCCC(=O)*; Palmitoyl = CCCCCCCCCCCCCCCC(=O)*; Met(O) = CS(=O)CC[C@H](N)C(=O)O; Myristoyl = CCCCCCCCCCCCCC(=O)*; Nle = CCCC[C@H](N)C(=O)O; DMIA = not defined here; PEG = not defined here; Aib = CC(C)(N)C(=O)O

Tests used:
Assay in all cases: cell-based or functional assay
glucagon receptor [1] = molecular target: T1, glucagon receptor (UniProt P47871 26-477, limits assumed)
GLP-1 receptor [2] = molecular target: T2, GLP-1 receptor (UniProt P43220 24-463, limits assumed)
glucagon receptor [3] = molecular target: T1, glucagon receptor; remark: listed apart in the source
GLP-1 receptor [4] = molecular target: T2, GLP-1 receptor; remark: listed apart in the source
glucagon receptor [5] = molecular target: T1, glucagon receptor; remark: listed apart in the source

T1 sequence (P47871 26-477 limits assumed): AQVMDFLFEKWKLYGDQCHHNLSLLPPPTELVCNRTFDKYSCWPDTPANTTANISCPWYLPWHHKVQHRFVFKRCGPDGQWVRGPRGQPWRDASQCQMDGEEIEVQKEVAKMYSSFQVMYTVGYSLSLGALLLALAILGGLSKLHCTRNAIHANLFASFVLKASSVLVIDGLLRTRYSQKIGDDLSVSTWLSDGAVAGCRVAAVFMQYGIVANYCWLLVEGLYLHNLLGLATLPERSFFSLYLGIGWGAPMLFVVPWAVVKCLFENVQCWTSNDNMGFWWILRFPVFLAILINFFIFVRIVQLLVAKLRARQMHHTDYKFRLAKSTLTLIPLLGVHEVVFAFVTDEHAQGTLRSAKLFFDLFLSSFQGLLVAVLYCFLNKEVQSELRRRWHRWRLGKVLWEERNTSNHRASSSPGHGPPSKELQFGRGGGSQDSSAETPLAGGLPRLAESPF

B1: E16, K20 AIB2, Cys24 Lactam (SEQ ID NO: 517), parent w/o PEG (peptide)
peptide: H[Aib]QGTFTSDYSKYLDERRAKDFVCWLMNT-NH2
modifications: lactam 16-20; N-terminus assumed
SMILES: CSCC[C@H](NC(=O)[C@H](CC(C)C)NC(=O)[C@H](Cc1c[nH]c2ccccc12)NC(=O)[C@H](CS)NC(=O)[C@@H](NC(=O)[C@H](Cc1ccccc1)NC(=O)[C@H](CC(=O)O)NC(=O)[C@@H]1CCCCNC(=O)CC[C@H](NC(=O)[C@H](CC(=O)O)NC(=O)[C@H](CC(C)C)NC(=O)[C@H](Cc2ccc(O)cc2)NC(=O)[C@H](CCCCN)NC(=O)[C@H](CO)NC(=O)[C@H](Cc2ccc(O)cc2)NC(=O)[C@H](CC(=O)O)NC(=O)[C@H](CO)NC(=O)[C@@H](NC(=O)[C@H](Cc2ccccc2)NC(=O)[C@@H](NC(=O)CNC(=O)[C@H](CCC(N)=O)NC(=O)C(C)(C)NC(=O)[C@@H](N)Cc2c[nH]cn2)[C@@H](C)O)[C@@H](C)O)C(=O)N[C@@H](CCCNC(=N)N)C(=O)N[C@@H](CCCNC(=N)N)C(=O)N[C@@H](C)C(=O)N1)C(C)C)C(=O)N[C@@H](CC(N)=O)C(=O)N[C@H](C(N)=O)[C@@H](C)O
- % Potency Relative to Native (glucagon receptor [1]): 108%
- % Potency Relative to Native (GLP-1 receptor [2]): 96.9%

B2: DMIA1, K10(C14), [E16/K20]-Gluc Amide (peptide)
peptide: [DMIA]SQGTFTSDK(Myristoyl)SKYLDERRAKDFVQWLMNT-NH2
modifications: reading uncertain
- % Activity of Glucagon (glucagon receptor [3]): 204%
- % Activity of GLP-1 (GLP-1 receptor [4]): 30%
- EC50 (GLP-1 receptor [4]): 0.05 nM

B3: Chimera DMIA1, Cys24 (SEQ ID NO: 519), parent w/o PEG (peptide)
peptide: [Isobutyryl(2-imidazol-4-yl)]SQGTFTSDYSKYLDEQAAKEFICWLMNT-NH2
SMILES: CC[C@H](C)[C@H](NC(=O)[C@H](Cc1ccccc1)NC(=O)[C@H](CCC(=O)O)NC(=O)[C@H](CCCCN)NC(=O)[C@H](C)NC(=O)[C@H](C)NC(=O)[C@H](CCC(N)=O)NC(=O)[C@H](CCC(=O)O)NC(=O)[C@H](CC(=O)O)NC(=O)[C@H](CC(C)C)NC(=O)[C@H](Cc1ccc(O)cc1)NC(=O)[C@H](CCCCN)NC(=O)[C@H](CO)NC(=O)[C@H](Cc1ccc(O)cc1)NC(=O)[C@H](CC(=O)O)NC(=O)[C@H](CO)NC(=O)[C@@H](NC(=O)[C@H](Cc1ccccc1)NC(=O)[C@@H](NC(=O)CNC(=O)[C@H](CCC(N)=O)NC(=O)[C@H](CO)NC(=O)C(C)(C)c1c[nH]cn1)[C@@H](C)O)[C@@H](C)O)C(=O)N[C@@H](CS)C(=O)N[C@@H](Cc1c[nH]c2ccccc12)C(=O)N[C@@H](CC(C)C)C(=O)N[C@@H](CCSC)C(=O)N[C@@H](CC(N)=O)C(=O)N[C@H](C(N)=O)[C@@H](C)O
- % Potency Relative to Native (glucagon receptor [1]): 28.9%
- % Potency Relative to Native (GLP-1 receptor [2]): 64.5%

B4: AIB2, AIB16, K10(C18) Gluc Amide (peptide)
peptide: H[Aib]QGTFTSDK(Stearoyl)SKYLD[Aib]RRAQDFVQWLMNT-NH2
modifications: N-terminus assumed
SMILES: CCCCCCCCCCCCCCCCCC(=O)NCCCC[C@H](NC(=O)[C@H](CC(=O)O)NC(=O)[C@H](CO)NC(=O)[C@@H](NC(=O)[C@H](Cc1ccccc1)NC(=O)[C@@H](NC(=O)CNC(=O)[C@H](CCC(N)=O)NC(=O)C(C)(C)NC(=O)[C@@H](N)Cc1c[nH]cn1)[C@@H](C)O)[C@@H](C)O)C(=O)N[C@@H](CO)C(=O)N[C@@H](CCCCN)C(=O)N[C@@H](Cc1ccc(O)cc1)C(=O)N[C@@H](CC(C)C)C(=O)N[C@@H](CC(=O)O)C(=O)NC(C)(C)C(=O)N[C@@H](CCCNC(=N)N)C(=O)N[C@@H](CCCNC(=N)N)C(=O)N[C@@H](C)C(=O)N[C@@H](CCC(N)=O)C(=O)N[C@@H](CC(=O)O)C(=O)N[C@@H](Cc1ccccc1)C(=O)N[C@H](C(=O)N[C@@H](CCC(N)=O)C(=O)N[C@@H](Cc1c[nH]c2ccccc12)C(=O)N[C@@H](CC(C)C)C(=O)N[C@@H](CCSC)C(=O)N[C@@H](CC(N)=O)C(=O)N[C@H](C(N)=O)[C@@H](C)O)C(C)C
- % Activity of Glucagon (glucagon receptor [3]): 212%
- EC50 (glucagon receptor [3]): 0.016 nM
- % Activity of GLP-1 (GLP-1 receptor [4]): 88.9%
- EC50 (GLP-1 receptor [4]): 0.009 nM

B5: E16, K20 DMIA1, Gly29,30 Cys24 Cex Lactam (SEQ ID NO: 513), parent w/PEG (peptide)
peptide: [Isobutyryl(2-imidazol-4-yl)]SQGTFTSDYSKYLDERRAKDFVC(PEG)WLMNGGPSSGAPPPS-NH2
modifications: lactam 16-20; reading uncertain; also: PEG size not given here
- % Potency Relative to Native (glucagon receptor [1]): 12.6%
- % Potency Relative to Native (GLP-1 receptor [2]): 11.3%

B6: Peptide J backbone, Q at position 3 (SEQ ID NO: 593) (peptide)
peptide: HSQGTFTSDYSKYLDTRRAAEFVAWL[Nle]DE
- % activity (glucagon receptor [5]): 25%

B7: DMIA1, K10(C16), [E16/K20]-Gluc Amide (peptide)
peptide: XSQGTFTSDKSKYLDERRAKDFVQWLMNT
modifications: DMIA at 1; Lys 10-C16 acyl; [E16/K20]; C-terminal amide
- % Activity of Glucagon (glucagon receptor [3]): 392%
- % Activity of GLP-1 (GLP-1 receptor [4]): 100%

B8: dS2, E16/K20, K10(C16) Gluc Amide (peptide)
peptide: HXQGTFTSDKSKYLDERRAKDFVQWLMNT
modifications: d-Ser at 2; Lys 10-C16 acyl; C-terminal amide
- % Activity of Glucagon (glucagon receptor [3]): 44.7%
- EC50 (glucagon receptor [3]): 0.076 nM
- % Activity of GLP-1 (GLP-1 receptor [4]): 19.5%
- EC50 (GLP-1 receptor [4]): 0.041 nM

B9: Peptide J backbone, Dab(Ac) at position 3 (SEQ ID NO: 595) (peptide)
peptide: HS[Dab(Ac)]GTFTSDYSKYLDTRRAAEFVAWL[Nle]DE
- % activity (glucagon receptor [5]): 19%
- EC50 (glucagon receptor [5]): 0.31 nM

B10: Chimera DMIA1, Cys29 (SEQ ID NO: 520), parent w/PEG (peptide)
peptide: [Isobutyryl(2-imidazol-4-yl)]SQGTFTSDYSKYLDEQAAKEFIAWLMNC(PEG)-NH2
modifications: reading uncertain
- % Potency Relative to Native (glucagon receptor [1]): 5.3%
- % Potency Relative to Native (GLP-1 receptor [2]): 27.3%

B11: DMIA1, K10(C18), [E16/K20]-Gluc Amide (peptide)
peptide: XSQGTFTSDKSKYLDERRAKDFVQWLMNT
modifications: DMIA at 1; Lys 10-C18 acyl; [E16/K20]; C-terminal amide
- % Activity of Glucagon (glucagon receptor [3]): 42.3%
- % Activity of GLP-1 (GLP-1 receptor [4]): 136%
- EC50 (GLP-1 receptor [4]): 0.011 nM

B12: Chimera Cys24 (SEQ ID NO: 518), parent w/PEG (peptide)
peptide: HSQGTFTSDYSKYLDEQAAKEFIC(PEG)WLMNT-NH2
modifications: reading uncertain
- % Potency Relative to Native (glucagon receptor [1]): 19.8%
- % Potency Relative to Native (GLP-1 receptor [2]): 29.3%

B13: AIB2, AIB16, K10(C16) Gluc Amide (SEQ ID NO: 611) (peptide)
peptide: H[Aib]QGTFTSDK(Palmitoyl)SKYLD[Aib]RRAQDFVQWLMNT-NH2
- % Activity of Glucagon (glucagon receptor [3]): 170%
- EC50 (glucagon receptor [3]): 0.02 nM
- % Activity of GLP-1 (GLP-1 receptor [4]): 72.3%

B14: Chimera DMIA1, Cys24 (SEQ ID NO: 519), parent w/PEG (peptide)
peptide: [Isobutyryl(2-imidazol-4-yl)]SQGTFTSDYSKYLDEQAAKEFIC(PEG)WLMNT-NH2
modifications: reading uncertain
- % Potency Relative to Native (glucagon receptor [1]): 6.9%
- % Potency Relative to Native (GLP-1 receptor [2]): 19.3%

B15: Peptide J backbone, C(Acm) at position 3 (SEQ ID NO: 594) (peptide)
peptide: HS[C(Acm)]GTFTSDYSKYLDTRRAAEFVAWL[Nle]DE
- % activity (glucagon receptor [5]): 33%
- EC50 (glucagon receptor [5]): 0.18 nM

B16: E16, K20 AIB2, Cys24 Lactam (SEQ ID NO: 517), parent w/PEG (peptide)
peptide: H[Aib]QGTFTSDYSKYLDERRAKDFVC(PEG)WLMNT-NH2
modifications: lactam 16-20; reading uncertain
- % Potency Relative to Native (glucagon receptor [1]): 15.8%
- % Potency Relative to Native (GLP-1 receptor [2]): 31%

B17: dS2, E16/K20, K10(C14) Gluc Amide (peptide)
peptide: HXQGTFTSDKSKYLDERRAKDFVQWLMNT
modifications: d-Ser at 2; Lys 10-C14 acyl; C-terminal amide
- % Activity of Glucagon (glucagon receptor [3]): 21.9%
- EC50 (glucagon receptor [3]): 0.155 nM
- % Activity of GLP-1 (GLP-1 receptor [4]): 6.3%
- EC50 (GLP-1 receptor [4]): 0.128 nM

B18: AIB2, AIB16, K10(C14) Gluc Amide (peptide)
peptide: H[Aib]QGTFTSDK(Myristoyl)SKYLD[Aib]RRAQDFVQWLMNT-NH2
modifications: N-terminus assumed
SMILES: CCCCCCCCCCCCCC(=O)NCCCC[C@H](NC(=O)[C@H](CC(=O)O)NC(=O)[C@H](CO)NC(=O)[C@@H](NC(=O)[C@H](Cc1ccccc1)NC(=O)[C@@H](NC(=O)CNC(=O)[C@H](CCC(N)=O)NC(=O)C(C)(C)NC(=O)[C@@H](N)Cc1c[nH]cn1)[C@@H](C)O)[C@@H](C)O)C(=O)N[C@@H](CO)C(=O)N[C@@H](CCCCN)C(=O)N[C@@H](Cc1ccc(O)cc1)C(=O)N[C@@H](CC(C)C)C(=O)N[C@@H](CC(=O)O)C(=O)NC(C)(C)C(=O)N[C@@H](CCCNC(=N)N)C(=O)N[C@@H](CCCNC(=N)N)C(=O)N[C@@H](C)C(=O)N[C@@H](CCC(N)=O)C(=O)N[C@@H](CC(=O)O)C(=O)N[C@@H](Cc1ccccc1)C(=O)N[C@H](C(=O)N[C@@H](CCC(N)=O)C(=O)N[C@@H](Cc1c[nH]c2ccccc12)C(=O)N[C@@H](CC(C)C)C(=O)N[C@@H](CCSC)C(=O)N[C@@H](CC(N)=O)C(=O)N[C@H](C(N)=O)[C@@H](C)O)C(C)C
- % Activity of Glucagon (glucagon receptor [3]): 77.3%
- EC50 (glucagon receptor [3]): 0.044 nM
- % Activity of GLP-1 (GLP-1 receptor [4]): 33.3%
- EC50 (GLP-1 receptor [4]): 0.024 nM

B19: dS2, E16/K20, K10(C18) Gluc Amide (peptide)
peptide: HXQGTFTSDKSKYLDERRAKDFVQWLMNT
modifications: d-Ser at 2; Lys 10-C18 acyl; C-terminal amide
- % Activity of Glucagon (glucagon receptor [3]): 196%
- % Activity of GLP-1 (GLP-1 receptor [4]): 60%
- EC50 (GLP-1 receptor [4]): 0.025 nM

B20: E16, K20 DMIA1, Gly29,30 Cys24 Cex Lactam (SEQ ID NO: 513), parent w/o PEG (peptide)
peptide: [DMIA]SQGTFTSDYSKYLDERRAKDFVCWLMNGGPSSGAPPPS-NH2
modifications: lactam 16-20; reading uncertain
- % Potency Relative to Native (glucagon receptor [1]): 116%
- % Potency Relative to Native (GLP-1 receptor [2]): 78.3%

B21: Peptide J backbone, M(O) at position 3 (SEQ ID NO: 598) (peptide)
peptide: HS[Met(O)]GTFTSDYSKYLDTRRAAEFVAWL[Nle]DE
- % activity (glucagon receptor [5]): 7%
- EC50 (glucagon receptor [5]): 0.91 nM

B22: Peptide J backbone, Dap(urea) at position 3 (SEQ ID NO: 596) (peptide)
peptide: HS[Dap(CONH2)]GTFTSDYSKYLDTRRAAEFVAWL[Nle]DE
- % activity (glucagon receptor [5]): 13%
- EC50 (glucagon receptor [5]): 0.48 nM
